{"source": "patent US20230212266A1", "about": "(FRED HUTCHINSON CANCER CENTER, published 2023)", "binders": {"B1": {"name": "CV8 (antibody, V domains shown)", "VH": "QVQLVQSGAEVKKPGASVKVSCKASGYTFTSYGISWVRQAPGQGLEWMGWISAYNGNTNYAQKLQGRVTMTTDTSTSTAYMELRSLRSDDTAVYYCARLVPTWASYYDFWSGYPGGYGMDVWGQGTTVTVSS", "VL": "not shown", "notes": "expressed as IgG"}, "B2": {"name": "CV2-12 (antibody, V domains shown)", "VH": "QVQLVESGGGVVQPGRSLRLSCAASGFTFSSYGIHWVRQAPGKGLEWVAVISYDGINKYYADSVKGRFTISRDNSKNTLYLHMNSLRAEDTAVYYCARPNSGSYHSYFDYWGQGTLVTVSS", "VL": "not shown", "notes": "expressed as IgG"}, "B3": {"name": "CV2-19 (antibody, V domains shown)", "VH": "B2 VH with G33A, I34M, V50I, H82Q, A88V, N100G, S101G, H105Y, S106G, Y107P", "VL": "QSALTQPASVSGSPGQSITISCTGTSSDVGSYNYVSWYQQHPGKAPKLMIYEVSNRPSGVSNRFSGSKSGNTASLTLSGLQAEDEADYYCSSYTSSSTLYVFGTGTKVTVL", "notes": "expressed as IgG"}, "B4": {"name": "CV2-13 (antibody, V domains shown)", "VH": "EVQLVESGGGLVQPGGSLRLSCAASGFTFSSYEMNWVRQAPGKGLEWVSYISSSGSTIYYADSVKGRFTISRDNAKNSLYLEMNSLRAEDTAVYYCASTSDSGSYYIHWYFDLWGRGTLVTVSS", "VL": "B3 VL with Y34L, E52D, N55K, L77I, S91C, Y93H, T94A, S95G, L99S, V101I", "notes": "expressed as IgG"}, "B5": {"name": "CV2-17 (antibody, V domains shown)", "VH": "EVQLVESGGGLVQPGGSLRLSCSASGFTFSSYAMHWVRQAPGKGLEYVSTISTNGGSTYYADSVKGRFTISRDNSKNTLYLQMSSLRAEDTAVYYCVLGYCSSTSCQHFDYWGQGTLVTVSS", "VL": "B3 VL with S31A, L77I, L99P", "notes": "expressed as IgG"}, "B6": {"name": "CV2-22 (antibody, V domains shown)", "VH": "QVQLVESGGGVVQPGRSLRLSCAASGFTFSSYGMHWVRQAPGKGLEWVAVISYDGSNKYYADSVKGRFTISRDNSKNTLYLQMNSLRAEDTALYYCASEIVSFIGSSEDYWGQGTLVTVSS", "VL": "SYELTQPPSVSVSPGQTARITCSGDALPKKYAYWYQQKSGQAPVLVIYEDSKRPSGIPERFSGSSSGTMATLTISGAQVEDEADYCCYSTDSSDNHRRVFGTGTKVTVL", "notes": "expressed as IgG"}, "B7": {"name": "CV2-23 (antibody, V domains shown)", "VH": "QVQLVESGGGVVQPGRSLRLSCAASGFTFNSFAMHWVRQAPGKGLEWVAVISYDGNNKYYADSVKGRFTISRDNSKNTLYLQMNSLRAEDTAVYYCARDRSGGYSCFDYWGQGTLVTVSS", "VL": "not shown", "notes": "expressed as IgG"}, "B8": {"name": "CV2-6 (antibody, V domains shown)", "VH": "QVQLVESGGGVVQPGRSLRLSCAASGFTFSIYAIHWVRQAPGKGLEWVAVISYDGINKYYADAVKGRFTISRDNSKNTLFLQMNSLRTEDTAVYYCARAMGGNYFHAFDIWGQGTMVTVSS", "VL": "EIVLTQSPGTLSLSPGERATLSCRASQSVSSSYLAWYQRKPGQAPRLLIYGASNRATGIPDRFSGSGSGTDFTLTISRLEPEDFAVFYCQQYGSSPWTFGQGTKVEIK", "notes": "expressed as IgG"}, "B9": {"name": "CV2-8 (antibody, V domains shown)", "VH": "QVQLVESGGGVVQPGRSLRLSCGASGFIFSSYAMHWVRQAPGKGLEWVAVISYDGNNKYYADSVKGRFTISRDNSKNTLYLQMNSLRAEDTAVYYCARPYSGTYFSAFDIWGQGTMVTVSS", "VL": "not shown", "notes": "expressed as IgG"}, "B10": {"name": "CV2-10 (antibody, V domains shown)", "VH": "QVQLQESGPGLVKPSGTLSLTCAVSGGSISSSTWWSWVRQPPGKGLEWIGEIYHSGSTNYNPSLKSRVTISVDKSKNQFSLKLSSVTAADTAVYYCARSASNYFGYYYYGMDVWGQGTTVTVSS", "VL": "EIVLTQSPATLSLSPGERATLSCRASQSVSSQLAWYQQKPGQAPRLLISDASNRATGIPARFSGSGSGTDFTLTISSLEPEDFAVYYCQQRSNWPRTFGQGTKVEIK", "notes": "expressed as IgG"}, "B11": {"name": "CV2-14 (antibody, V domains shown)", "VH": "QVQLVESGGGVVQPGRSLRLSCAASGFTFSSFALHWVRQAPGKGLEWVAVVSYDGSNKYYADSVKGRFTISRDNSKNTLYLQMNSLRAEDTAAYYCARSMGGNYADYFDYWGQGTLVTVSS", "VL": "B10 VL with S30T, S31N, Q32Y, S49Y, R96N, K103R, V104L", "notes": "expressed as IgG"}, "B12": {"name": "CV2-11 (antibody, V domains shown)", "VH": "EVQLVESGGGLVKPGGSLRLSCAASGFTFSSYSMNWVRQAPGKGLEWVSSISSSRSYIYYADSVKGRFTISRDNAKNSLYLQMNSLRAEDTAVYYCASNPAADPNTYYYYGMDVWGQGTTVTVSS", "VL": "QPVLTQPPSASASLGASVTLTCTLSSGYSNYKVDWYQQRPGKGPRFVMRVGTGGIVGSKGDGIPDRFSVLGSGLNRYLTIKNIQEEDESDYHCGADHGSGSNFVGVFGGGTKLTVL", "notes": "expressed as IgG"}, "B13": {"name": "CV2-9 (antibody, V domains shown)", "VH": "EVQLVESGGGLIQPGGSLRLSCAASGFTVSSNYMTWVRQAPGKGLEWVSIIYSGGSTYYADSVKGRFTISRDNSKNTLYLQMNSLRAEDTAVYYCAAGYYDSINWGQGTLVTVPS", "VL": "DIQMTQSPSTLSASVGDRVTITCRASQSISTWLAWYQQKPGKAPKLLIYKASNLESGVPSRFSGSGSGTEFTLTISSLQPDDFATYYCQQYYTYSWTFGQGTKLEIKR", "notes": "expressed as IgG"}, "B14": {"name": "CV2-18 (antibody, V domains shown)", "VH": "QVQLVQSGAEVKKPGSSVKVSCKASGGTFSSYAISWVRQAPGQGLEWMGGIIPIFGTANYAQKFQGRVTITADESTSTAYMELSSLRSEDTAVYYCARVGAYDSSGYYQDLWGRGTLVTVSS", "VL": "EIVLTQSPATLSLSPGERATLSCRASQSVSSYLAWYQQKPGQAPRLLIYDASNRATGIPARFSGSGSGTDFTLTISSLEPEDFAVYYCQQRSNWPPVITFGQGTRLEIK", "notes": "expressed as IgG"}, "B15": {"name": "CV2-15 (antibody, V domains shown)", "VH": "QVQLVQSGAEVKKPGSSVKVSCKTSGGIFSSYAISWVRQAPGQGLEWMGGIIPIFGTANYAQKFQGRVTITADESTSTAYMELSSLRSEDTAVYYCASYSGFDDYGHYRNYWGQGTLVTVSS", "VL": "B14 VL with E1D, L4M, S7T, S31R, S92Y, V97E, I98L, Q102G, R105K, L106V", "notes": "expressed as IgG"}, "B16": {"name": "CV2-16 (antibody, V domains shown)", "VH": "QVQLVQSGAEVKKPGSSVKVSCKASGGTFSSFAFIWVRQAPGQGLEWMGGIIPIFGTAKYTQKFQGRVTITADESTSTAYMELSSLRSEDTAVYYCARVSYYDSSGFYTDYWGQGTLVTVSS", "VL": "B14 VL with E1D, L4M, Y32F, V97E, I98Y, R105K", "notes": "expressed as IgG"}, "B17": {"name": "CV2-21 (antibody, V domains shown)", "VH": "QVQLVQSGAEVKKPGASVKVSCKAFGYTFTKNGINWVRQAPGQGLEWMGWISPNNGYTNFAQKFQGRATMTSDTSTSTAYMELRSLRSDDTAVYYCARVRVDYDSSGYDAYYYHLDVWGQGTTVTVSS", "VL": "not shown", "notes": "expressed as IgG"}}, "assay_in_all_cases": "BLI, mAb on anti-human Fc probe, antigen in solution", "key": {"[1]": {"biological_target": "T1, SARS-CoV-2 receptor binding domain (RBD) (SARS-CoV-2, UniProt P0DTC2 319-591)"}, "[2]": {"biological_target": "T1, SARS-CoV-2 receptor binding domain (RBD)", "remark": "listed apart in the source"}, "[3]": {"biological_target": "T1, SARS-CoV-2 receptor binding domain (RBD)", "remark": "listed apart in the source"}, "[4]": {"biological_target": "T1, SARS-CoV-2 receptor binding domain (RBD)", "remark": "listed apart in the source"}, "[5]": {"biological_target": "T1, SARS-CoV-2 receptor binding domain (RBD)", "remark": "listed apart in the source"}, "[6]": {"biological_target": "T1, SARS-CoV-2 receptor binding domain (RBD)", "remark": "listed apart in the source"}, "[7]": {"biological_target": "T1, SARS-CoV-2 receptor binding domain (RBD)", "remark": "listed apart in the source"}, "[8]": {"biological_target": "T1, SARS-CoV-2 receptor binding domain (RBD)", "remark": "listed apart in the source"}, "[9]": {"biological_target": "T1, SARS-CoV-2 receptor binding domain (RBD)", "remark": "listed apart in the source"}, "[10]": {"biological_target": "T1, SARS-CoV-2 receptor binding domain (RBD)", "remark": "listed apart in the source"}, "[11]": {"biological_target": "T1, SARS-CoV-2 receptor binding domain (RBD)", "remark": "listed apart in the source"}, "[12]": {"biological_target": "T1, SARS-CoV-2 receptor binding domain (RBD)", "remark": "listed apart in the source"}, "[13]": {"biological_target": "T1, SARS-CoV-2 receptor binding domain (RBD)", "remark": "listed apart in the source"}, "[14]": {"biological_target": "T1, SARS-CoV-2 receptor binding domain (RBD)", "remark": "listed apart in the source"}, "[15]": {"biological_target": "T1, SARS-CoV-2 receptor binding domain (RBD)", "remark": "listed apart in the source"}, "[16]": {"biological_target": "T1, SARS-CoV-2 receptor binding domain (RBD)", "remark": "listed apart in the source"}, "[17]": {"biological_target": "T1, SARS-CoV-2 receptor binding domain (RBD)", "remark": "listed apart in the source"}}, "note": "Numbering of substitutions follows the chain as printed. Read-outs that look alike come from different tables or passages of the source."}
{"binder": "B1", "values": [{"measurement": "binding result", "setting": "[1]", "result": "no binding"}]}
{"binder": "B2", "values": [{"measurement": "binding result", "setting": "[2]", "result": "no binding"}]}
{"binder": "B3", "values": [{"measurement": "binding result", "setting": "[3]", "result": "no binding"}]}
{"binder": "B4", "values": [{"measurement": "binding result", "setting": "[4]", "result": "no binding"}]}
{"binder": "B5", "values": [{"measurement": "binding result", "setting": "[5]", "result": "no binding"}]}
{"binder": "B6", "values": [{"measurement": "binding result", "setting": "[6]", "result": "no binding"}]}
{"binder": "B7", "values": [{"measurement": "binding result", "setting": "[7]", "result": "no binding"}]}
{"binder": "B8", "values": [{"measurement": "binding result", "setting": "[8]", "result": "no binding"}]}
{"binder": "B9", "values": [{"measurement": "binding result", "setting": "[9]", "result": "no binding"}]}
{"binder": "B10", "values": [{"measurement": "binding result", "setting": "[10]", "result": "no binding"}]}
{"binder": "B11", "values": [{"measurement": "binding result", "setting": "[11]", "result": "no binding"}]}
{"binder": "B12", "values": [{"measurement": "binding result", "setting": "[12]", "result": "no binding"}]}
{"binder": "B13", "values": [{"measurement": "binding result", "setting": "[13]", "result": "no binding"}]}
{"binder": "B14", "values": [{"measurement": "binding result", "setting": "[14]", "result": "no binding"}]}
{"binder": "B15", "values": [{"measurement": "binding result", "setting": "[15]", "result": "no binding"}]}
{"binder": "B16", "values": [{"measurement": "binding result", "setting": "[16]", "result": "no binding"}]}
{"binder": "B17", "values": [{"measurement": "binding result", "setting": "[17]", "result": "no binding"}]}
